Reference: patent US7566447B2, “Biocides” (Iogenetics, LLC, priority 2003, dated 2009)

Columns and labels:
Caco-2 Host Cells = experiment: Host cell toxicity assay by LDH release (CYTOTOX 96); type: cell-based, human; conditions: control medium alone for 2 h, 0-5% non toxic, 5-10% mild toxicity
Description: Host cell toxicity assay was performed by measuring the release of lactate dehydrogenase (LDH) in the medium using a CYTOTOX 96 Non-Radioactive Cytotoxicity Assay kit (Promega, Madison, Wis.). Toxicity was therefore classified as non toxic 0-5% LDH release and mild toxicity 5-10% LDH release (ref).

Caco-2 cells = experiment: Caco-2 cell viability by trypan blue dye exclusion; type: cell-based, human; conditions: 24 hrs, uninoculated control cells 91 %
Description: (§1) This experiment describes the effects of PLA2 on sporozoite infectivity. Briefly, sporozoites were incubated in an isotonic saline solution (37° C., 30 min) with a range of concentrations of PLA2 isolated from honey bee venom (Sigma-Aldrich Corp., St. Louis, Mo., 1.5 U/μg protein). Control sporozoites were identically incubated in buffer containing concentration-matched BSA but no PLA2. Sporozoites were then washed in medium and inoculated onto replicate Caco-2 human intestinal epithelial cell monolayers. 24 h later, infection was quantified in test and control monolayers by immunofluorescence assay as described herein and the mean percent reduction of infection calculated. […] Percent viability of Caco-2 cells following exposure to PLA2-treated sporozoites (86%) was similar to that of uninoculated control cells (91 %) at 24 hrs, as determined by trypan blue dye exclusion. […] Through fusion of PLA2 to a monoclonal antibody with a high affinity for sporozoites, such as 1E10 or 4H9, lethal concentrations of biocide are deliverable to the sporozoite surface with relatively low amounts of biocide being used.

C. parvum sporozoites = experiment: Effect of PLA2 on sporozoite infectivity for Caco-2 monolayers (immunofluorescence assay); type: cell-based, Cryptosporidium parvum
Description: as §1

Substance | % LDH release (Caco-2 Host Cells; 10 μg/ml) [%] | % LDH release (Caco-2 Host Cells; 100 μg/ml) [%] | Percent viability of Caco-2 cells following exposure to PLA2-treated sporozoites (Caco-2 cells) [%] | PLA2 concentration effective in neutralization (C. parvum sporozoites; preliminary data) [units/ml] | PLA2 concentration achieving highly significant reduction of sporozoite infectivity (C. parvum sporozoites; sporozoites incubated 37° C., 30 min, Caco-2 monolayers, 24 h, P<0.0005) [U/ml]
cathelicidin | 1.6 ± 0.3 | 5.6 ± 0.9 |  |  | 
bee-venom phospholipase A2 [PLA2] |  |  | 86 | < 0.02 | 0.014
b-defensin 1 [βD1] | 0.8 ± 1.0 |  |  |  | 
